Reference: the Human Domainome abundance scans (Beltran et al. 2025)
± gives the uncertainty stated by the source.

B1: Triacylglycerol hydrolase DDHD2, residues 389 to 447; numbered along this chain, O94830 (parent)
chain: TLEEDLKKLQLSEFFDIFEKEKVDKEALALCTDRDLQEIGIPLGPRKKILNYFSTRKNS

Variants of: B1
Experiment: abundance fitness (aPCA) (normalised: wild type 0, dead -1); higher = more abundant; growth selection in yeast, the domain comes from the species named
Details: Homo sapiens

Abundance fitness, by site and new letter:
E4: S -0.332 ± 0.061, I -0.432 ± 0.12, Y -0.777 ± 0.12, D -0.205 ± 0.1, V -0.629 ± 0.072, W -0.811 ± 0.081, T -0.589 ± 0.081, R -0.493 ± 0.056, M -0.109 ± 0.071, A -0.286 ± 0.067, F -0.264 ± 0.1, G -0.436 ± 0.074, H -0.33 ± 0.098, Q -0.103 ± 0.072, N -0.341 ± 0.12, L -0.371 ± 0.059, P -0.996 ± 0.11
I17: V 0.128 ± 0.34
D16: N -0.025 ± 0.15, G -0.088 ± 0.046, C -0.084 ± 0.085, L -0.33 ± 0.06, I -0.156 ± 0.15, T -0.019 ± 0.066, P -0.145 ± 0.066, S -0.057 ± 0.056, F 0.015 ± 0.13, Q 0.106 ± 0.072, R 0.049 ± 0.047, W -0.036 ± 0.058, Y -0.435 ± 0.2, V -0.096 ± 0.05, A 0.026 ± 0.049, M -0.228 ± 0.091, K 0.089 ± 0.077, H -0.033 ± 0.11, E 0.075 ± 0.059
T1: M -0.475 ± 0.21, S -0.232 ± 0.12, Q -0.506 ± 0.28, P -0.999 ± 0.42, I -0.572 ± 0.21, Y 0.138 ± 0.38, D 0.014 ± 0.3, R -0.331 ± 0.16, V -0.44 ± 0.15, N 0.235 ± 0.29, G 0.103 ± 0.13, K -0.425 ± 0.24, E -0.042 ± 0.17, L -0.488 ± 0.18
E21: A 0.599 ± 0.07, C 0.257 ± 0.098, K 0.809 ± 0.093, Y 0.385 ± 0.12, L 0.45 ± 0.06, T 0.212 ± 0.084, P -0.27 ± 0.099, H 0.155 ± 0.12, I 0.245 ± 0.1, F 0.616 ± 0.11, S 0.453 ± 0.064, Q 0.137 ± 0.094, M 0.86 ± 0.084, W 0.299 ± 0.072, N 0.428 ± 0.13, V 0.029 ± 0.075, R 0.508 ± 0.06, D -0.275 ± 0.12
S12: D 0.037 ± 0.074, L -0.104 ± 0.054, I -0.012 ± 0.083, Y -0.13 ± 0.088, P -0.301 ± 0.066, Q 0.101 ± 0.075, K -0.032 ± 0.078, V -0.099 ± 0.052, H 0.052 ± 0.083, C -0.22 ± 0.093, T 0.017 ± 0.059, M -0.119 ± 0.072, R -0.274 ± 0.06, W -0.137 ± 0.075, G -0.099 ± 0.058, E 0.016 ± 0.066, A -0.023 ± 0.052
L2: I -0.017 ± 0.094, C -0.621 ± 0.089, E -0.2 ± 0.086, D -0.468 ± 0.13, F -0.269 ± 0.091, H -0.818 ± 0.17, K -0.426 ± 0.11, M 0.041 ± 0.085, Y -0.695 ± 0.13, A -0.609 ± 0.07, G -0.607 ± 0.071, W -0.52 ± 0.082, Q -0.65 ± 0.12, P -0.748 ± 0.092
E13: V -0.109 ± 0.088, G -0.576 ± 0.1, P -0.432 ± 0.16, T -0.538 ± 0.15, L -0.608 ± 0.11, Q -0.215 ± 0.15, Y -0.012 ± 0.22, M -0.135 ± 0.17, W -1.45 ± 0.27, S -0.252 ± 0.1, R -0.408 ± 0.098, A -0.036 ± 0.089
D5: F 0.032 ± 0.1, E 0.123 ± 0.058, V -0.343 ± 0.06, Q -0.062 ± 0.068, I -0.144 ± 0.11, C -0.033 ± 0.1, A -0.144 ± 0.06, Y -0.614 ± 0.12, S -0.016 ± 0.062, K -0.42 ± 0.085, P -0.904 ± 0.092, G -0.536 ± 0.06, L 0.021 ± 0.052, N -0.319 ± 0.1, H 0.004 ± 0.11, T 0.15 ± 0.069, M -0.194 ± 0.076, R -0.568 ± 0.061
K22: W -0.729 ± 0.13, M -0.103 ± 0.095, D 0.194 ± 0.11, R -0.193 ± 0.073, Q -0.247 ± 0.11, A -0.039 ± 0.072, S 0.107 ± 0.075, L -0.172 ± 0.064, H 0.076 ± 0.11, F 0.002 ± 0.09, T -0.16 ± 0.094, C -0.083 ± 0.09, I -0.479 ± 0.11, G 0.455 ± 0.067, E 0.141 ± 0.093, Y 0.089 ± 0.1, N 0.381 ± 0.097
F14: A -0.098 ± 0.086, P -0.581 ± 0.097, M -0.015 ± 0.085, Y -0.506 ± 0.28, I -0.365 ± 0.24, G -0.775 ± 0.094, T -0.521 ± 0.13, N -0.193 ± 0.19, H -0.599 ± 0.2, S -0.511 ± 0.082, R -0.671 ± 0.075, C -0.28 ± 0.11, E -0.592 ± 0.11, W -0.179 ± 0.076, Q -0.205 ± 0.084, V -0.505 ± 0.082, L 0 ± 0.06
F15: R -0.077 ± 0.063, Q -0.103 ± 0.086, S 0.088 ± 0.076, L 0.02 ± 0.067, D -0.465 ± 0.2, Y -0.114 ± 0.2, N 0.05 ± 0.21, G 0.007 ± 0.071, T 0.112 ± 0.07, A -0.005 ± 0.062, E -0.029 ± 0.08, H -0.084 ± 0.18, C -0.035 ± 0.17, K 0.068 ± 0.097, P -0.537 ± 0.093, I -0.513 ± 0.23, V -0.097 ± 0.064, W -0.311 ± 0.098, M -0.175 ± 0.098
Q10: E 0.119 ± 0.061, Y -0.191 ± 0.17, I -0.852 ± 0.34, N 0.011 ± 0.2, D 0.069 ± 0.099, C -0.101 ± 0.078, M -0.1 ± 0.074, V -0.667 ± 0.055, R -0.247 ± 0.052, T -0.241 ± 0.08, F -0.421 ± 0.13, H -0.138 ± 0.13, P -0.863 ± 0.093, A -0.22 ± 0.05, G -0.131 ± 0.046, L -0.52 ± 0.059
L11: E -0.856 ± 0.088, K -1.14 ± 0.15, R -0.996 ± 0.068, Y -1.15 ± 0.19, T -0.871 ± 0.093, M -0.125 ± 0.058, P -1 ± 0.089, C -0.462 ± 0.088, S -0.969 ± 0.072, V -0.401 ± 0.053, G -1.22 ± 0.095, A -0.882 ± 0.098, N -1.02 ± 0.21, I -0.257 ± 0.14, H -0.83 ± 0.1, F -1.05 ± 0.17, W -1.12 ± 0.075
K7: F -0.038 ± 0.14, T -0.196 ± 0.099, M -0.424 ± 0.18, A -0.032 ± 0.086, Q 0.083 ± 0.12, S -0.08 ± 0.077, G -0.056 ± 0.089, C -0.294 ± 0.2, Y -0.006 ± 0.14, L -0.203 ± 0.074, H -0.07 ± 0.16, E -0.017 ± 0.14, V -0.43 ± 0.087, N -0.153 ± 0.22, R 0.108 ± 0.074, P -0.689 ± 0.11, I -0.741 ± 0.38
E3: Y -0.162 ± 0.1, P -0.817 ± 0.088, T -0.705 ± 0.089, W -0.16 ± 0.059, I -0.325 ± 0.14, V -0.454 ± 0.064, G -0.591 ± 0.057, M -0.002 ± 0.089, F -0.209 ± 0.1, L -0.145 ± 0.058, R -0.239 ± 0.049, A -0.142 ± 0.063, K 0.101 ± 0.081, N -0.354 ± 0.12, H -0.358 ± 0.11, C -0.748 ± 0.1, Q -0.251 ± 0.078
K20: A 0.07 ± 0.085, N -0.142 ± 0.14, M 0.081 ± 0.091, L -0.386 ± 0.069, W -0.536 ± 0.11, D -0.126 ± 0.14, T -0.104 ± 0.09, V -0.432 ± 0.088, C -0.538 ± 0.14, H -0.212 ± 0.14, S -0.332 ± 0.088, Y -0.324 ± 0.14, F -0.524 ± 0.15, P -0.591 ± 0.095, Q -0.317 ± 0.11, I -0.321 ± 0.14, G -0.26 ± 0.12
L6: T -0.492 ± 0.11, V -1.12 ± 0.11, A -1.1 ± 0.11, G -0.698 ± 0.088, D 0.082 ± 0.21, N -0.32 ± 0.37, R -0.833 ± 0.11, Q -0.336 ± 0.17, S -0.767 ± 0.13, E -0.765 ± 0.12, C -0.888 ± 0.27, Y -0.675 ± 0.43, K -0.335 ± 0.15, P -0.35 ± 0.1, H -0.754 ± 0.46, W -0.45 ± 0.11, F 0.134 ± 0.23, M -0.208 ± 0.12
F18: Q -0.31 ± 0.15, P -0.035 ± 0.094, T -0.759 ± 0.12, Y -0.293 ± 0.12, G -0.644 ± 0.082, M -0.225 ± 0.15, S -0.445 ± 0.081, W -0.535 ± 0.11, K -0.081 ± 0.13, V -0.45 ± 0.083, H -0.533 ± 0.22, N -0.197 ± 0.12, R -0.685 ± 0.085, A -0.134 ± 0.074, D -0.399 ± 0.1, E -0.508 ± 0.15, I -0.16 ± 0.16
E19: D 0.129 ± 0.1, T 0.023 ± 0.084, A -0.225 ± 0.069, L 0.054 ± 0.062, P -0.857 ± 0.12, W -0.463 ± 0.092, N -0.187 ± 0.12, M 0.016 ± 0.1, S -0.054 ± 0.067, G -0.359 ± 0.072, I 0.007 ± 0.1, V 0.049 ± 0.065, C -0.161 ± 0.089, H -0.024 ± 0.12, R -0.007 ± 0.062, Y -0.255 ± 0.12, F -0.082 ± 0.11
V23: A -0.339 ± 0.083, G -0.426 ± 0.074, C -0.47 ± 0.14, I 0.417 ± 0.097, E -0.434 ± 0.091, H -0.376 ± 0.15, R -0.311 ± 0.072, F 0.437 ± 0.11, N -0.414 ± 0.19, L 0.354 ± 0.067, K 0.101 ± 0.11, M 0.773 ± 0.079, D -0.177 ± 0.094, Q -0.331 ± 0.1, P -0.374 ± 0.11
